Laboratory results: PMC2874008, “Agrin Binds BMP2, BMP4 and TGFβ1” (PLoS ONE, 2010)

B1: Mature human BMP2 (ligand, UniProt P12643 283-396, looked up)
chain: QAKHKQRKRLKSSCKRHPLYVDFSDVGWNDWIVAPPGYHAFYCHGECPFPLADHLNSTNHAIVQTLVNSVNSKIPKACCVPTELSAISMLYLDENEKVVLKNYQDMVVEGCGCR
notes: bone morphogenetic protein 2, human, mature growth factor; source: bought: R&D Systems
B2: Mature human BMP4 (ligand, UniProt P12644 293-408, looked up)
chain: SPKHHSQRARKKNKNCRRHSLYVDFSDVGWNDWIVAPPGYQAFYCHGDCPFPLADHLNSTNHAIVQTLVNSVNSSIPKACCVPTELSAISMLYLDEYDKVVLKNYQEMVVEGCGCR
notes: bone morphogenetic protein 4, human, mature growth factor; source: bought: R&D Systems
B3: N-terminal part of rat agrin (Agrin-Nterm) (domain or fragment)
chain: RSDVCRGMLCGFGAVCEPSVEDPGRASCVCKKNACPATVAPVCGSDASTYSNECELQRAQCNQQRRIRLLRQGPCGSRDPCANVTCSFGSTCVPSADGQTASCLCPTTCFGAPDGTVCGSDGVDYPSECQLLSHACASQEHIFKKFNGPCDPCQGSMSDLNHICRVNPRTRHPEMLLRPENCPAQHTPICGDDGVTYENDCVMSRIGATRGLLLQKVRSGQCQTRDQCPETCQFNSVCLSRRGRPHCSCDRVTCDGSYRPVCAQDGHTYNNDCWRQQAECRQQRAIPPKHQGPCDQTPSPCHGVQCAFGAVCTVKNGKAECECQRVCSGIYDPVCGSDGVTYGSVCELESMACTLGREIQVARRGPCDPCGQCRFGSLCEVETGRCVCPSECVESAQPVCGSDGHTYASECELHVHACTHQISLYVASAGHCQTCGEKVCTFGAVCSAGQCVCPRCEHPPPGPVCGSDGVTYLSACELREAACQQQVQIEEAHAGPCEPAECGSGGSGSGEDDECEQELCRQRGGIWDEDSEDGPCVCDFSCQSVPRSPVCGSDGVTYGTECDLKKARCESQQELYVAAQGACRGPTLAPLLPVAFPHCAQTPYGCCQDNFTAAQGVGLAGCPSTCHCNPHGSYSGTCDPATGQCSCRPGVGGLRCDRCEPGFWNFRGIVTDGHSGCTPCSCDPRGAVRDDCEQMTGLCSCRPGVAGPKCGQCPDGQVLGHLGCEADPMTPVTCVEIHCEFGASCVEKAGFAQCICPTLTCPEANSTKVCGSDGVTYGNECQLKAIACRQRLDISTQSLGPCQ
modifications: glycosylation at multiple sites (proteoglycan smear on SDS-PAGE)
notes: not agrin residues; rat agrin, residues Asp65-Gln865, amplified from rat agrin cDNA NM_175754.1; numbers count on: the protein encoded by NM_175754.1; Calculated molecular mass of the recombinant protein 88,054 Da

Experiments:
[1] = molecular target: B3; assay: SPR; BIAcore X; BMP2, BMP4 or TGFβ1 immobilised on CM5 chips by amine coupling, Agrin-Nterm injected at 20 µl/min; 20 mM HEPES, 150 mM NaCl, 5 mM EDTA, 0.005% Tween 20, pH 7.5; global fit, 1:1 Langmuir model; conditions: both partners purified
[2] = molecular target: Mature human TGFβ1 (human); assay: as above
Mature human TGFβ1 (human), sequence (P01137 279-390): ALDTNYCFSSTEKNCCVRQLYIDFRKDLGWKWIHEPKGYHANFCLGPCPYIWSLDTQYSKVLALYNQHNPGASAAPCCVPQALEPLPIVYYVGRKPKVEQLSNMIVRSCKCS

Mature human BMP4 = molecular target: B2; assay: SPR; solution-competition: constant concentration of growth factor (40 nM BMP2, 40 nM BMP4 or 4 nM TGFβ1) preincubated 30 min at room temperature with increasing Agrin-Nterm, injected over immobilised ECD of the receptor (BMPR1A or TGF-βsRII) on CM5; 20 mM HEPES, 150 mM NaCl, 5 mM EDTA, 0.005% Tween 20, pH 7.5; 50% decrease in kobs by the method of Nieba et al.; conditions: both partners purified
Mature human BMP2 = molecular target: B1; assay: as above; conditions: both partners purified
[3] = molecular target: Mature human TGFβ1 (human); assay: as above

Kd [1] [nM] | koff [1] [s⁻¹] | kon [1] [M⁻¹ s⁻¹] | Kd [2] [nM] | koff [2] [s⁻¹] | kon [2] [M⁻¹ s⁻¹] | IC50 (Mature human BMP4) [nM] | IC50 (Mature human BMP2) [nM] | IC50 [3] [nM] | Binder
262 | 0.000286 | 1090 | – | – | – | – | – | – | B1
257 | 0.000412 | 1610 | – | – | – | – | – | – | B2
– | – | – | 51.5 | 0.000172 | 3340 | 345 | 12 | 2000 | B3
